Assay results reported in doi:10.1101/2020.07.14.203299 (bioRxiv, 2020).

T1: GST-FliJ (purified) (Salmonella enterica serovar Typhimurium, UniProt P0A1K1 1-147)
T1 sequence (looked up): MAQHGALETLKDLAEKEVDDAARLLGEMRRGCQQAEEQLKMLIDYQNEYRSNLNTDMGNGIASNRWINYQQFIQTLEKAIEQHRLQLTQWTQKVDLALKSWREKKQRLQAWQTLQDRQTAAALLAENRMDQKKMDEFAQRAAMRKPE

B1: His-FlgN (natural protein, Salmonella enterica serovar Typhimurium, UniProt P0A1J7 1-140, looked up)
chain: MTRLSEILDQMTTVLNDLKTVMDAEQQQLSVGQINGSQLQRITEEKSSLLATLDYLEQQRRLEQNAQRSANDDIAERWQAITEKTQHLRDLNQHNGWLLEGQIERNQQALEVLKPHQEPTLYGADGQTSVSHRGGKKISI
B2: GST-FliJ(Δ13–24) (natural protein, Salmonella enterica serovar Typhimurium, UniProt P0A1K1 1-147, looked up)
chain: MAQHGALETLKDLGEMRRGCQQAEEQLKMLIDYQNEYRSNLNTDMGNGIASNRWINYQQFIQTLEKAIEQHRLQLTQWTQKVDLALKSWREKKQRLQAWQTLQDRQTAAALLAENRMDQKKMDEFAQRAAMRKPE

Tests used:
[1] = target: T1, GST-FliJ (purified); test: SPR
[2] = target: B1; test: SPR

B1
Kd [1]: 27.4 ± 13 µM

B2
Kd [2]: 7.74 ± 0.12 µM
